Where a chain is given by its changes, count along the chain named. In names and notes the source's numbering stands.
B1: variant CD80 IgV-Fc E35D/K89N (Fc fusion)
chain: VIHVTKEVKEVATLSCGHNVSVEELAQTRIYWQKDKKMVLTMMSGDMNIWPEYKNRTIFDITNNLSIVILALRPSDEGTYECVVLKYENDAFKREHLAEVTLSVKAD
B2: variant CD80 IgV-Fc E35D/M47V/K89N (Fc fusion)
chain: B1 chain with M47V
B3: variant CD80 IgV-Fc M47V/V68M (Fc fusion)
chain: B1 chain with D35E, M47V, V68M, N89K
B4: variant CD80 IgV-Fc M47V (Fc fusion)
chain: B1 chain with D35E, M47V, N89K
B5: variant CD80 IgV-Fc E35D/M47L/A71G/L85M (Fc fusion)
chain: B1 chain with M47L, A71G, L85M, N89K
B6: variant CD80 IgV-Fc E35D/D46E/L85M (Fc fusion)
chain: B1 chain with D46E, L85M, N89K
B7: variant CD80 IgV-Fc Q27L/E35D/M47V/I61V/L85M (Fc fusion)
chain: B1 chain with Q27L, M47V, I61V, L85M, N89K
B8: variant CD80 IgV-Fc Q27H/E35D/M47I (Fc fusion)
chain: B1 chain with Q27H, M47I, N89K
B9: variant CD80 IgV-Fc E35D/D46E (Fc fusion)
chain: B1 chain with D46E, N89K
B10: variant CD80 IgV-Fc E35D/D46E/M47I (Fc fusion)
chain: B1 chain with D46E, M47I, N89K

molecular target: human PD-L1 (human) (UniProt Q9NZQ7); assay: flow cytometry, CHO cells expressing huPD-L1
Target sequence in this assay (Q9NZQ7 19-290): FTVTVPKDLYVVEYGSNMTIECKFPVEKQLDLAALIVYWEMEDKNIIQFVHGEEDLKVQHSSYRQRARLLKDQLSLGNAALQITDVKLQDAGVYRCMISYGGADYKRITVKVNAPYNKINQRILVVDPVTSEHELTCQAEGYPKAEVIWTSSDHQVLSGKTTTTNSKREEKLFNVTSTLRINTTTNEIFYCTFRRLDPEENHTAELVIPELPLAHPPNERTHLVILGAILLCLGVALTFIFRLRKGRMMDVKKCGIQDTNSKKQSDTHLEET

MFI at 33.3 nM [MFI]	Binder
757	B1
4340	B2
4290	B3
2320	B4

molecular target: human CTLA-4 (huCTLA4), on stably transduced CHO cells (human) (UniProt P16410); assay: flow cytometry on CHO/huCTLA4 cells; MFI relative to WT CD80 (CD80 WT IgV-Fc = 1.0)
Sequence (P16410 36-223): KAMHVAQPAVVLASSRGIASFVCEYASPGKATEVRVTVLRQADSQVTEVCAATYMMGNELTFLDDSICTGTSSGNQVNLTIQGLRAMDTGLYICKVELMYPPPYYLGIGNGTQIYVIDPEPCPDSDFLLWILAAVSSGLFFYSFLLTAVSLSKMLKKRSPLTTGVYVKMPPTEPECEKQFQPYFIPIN

Fold change to WT CD80 [fold]	Binder
8.7	B5
15.8	B6
14.6	B7
14.4	B8
14.6	B9
11.2	B10

molecular target: human PD-L1 (huPD-L1), on stably transduced CHO cells (human) (UniProt Q9NZQ7); assay: flow cytometry; ratio of MFI on CHO/huPD-L1 cells to MFI on Jurkat (CD28) cells
Sequence (Q9NZQ7 19-290): as the sequence (Q9NZQ7 19-290) above

Ratio of PDL1:CD28	Binder
42	B5
18	B6
12	B7
5	B8
5	B9
4	B10

molecular target: CD28, endogenously expressed on Jurkat/IL2 reporter cells (human) (UniProt P10747); assay: flow cytometry on Jurkat (CD28) cells; MFI relative to WT CD80 (CD80 WT IgV-Fc = 1.0)

Fold change to WT CD80 [fold]	Binder
3	B5
2.5	B6
3.5	B7
11.5	B8
11.8	B9
15.2	B10

molecular target: human PD-L1 (human) (UniProt Q9NZQ7); assay: flow cytometry; PD-L1 MFI over CD28 MFI of the same protein
Target sequence in this assay (Q9NZQ7 19-290): as above

Ratio of PDL1:CD28	Binder
3.2	B1
8.6	B2
13.1	B3
33.7	B4

molecular target: human CTLA-4 (human) (UniProt P16410); assay: flow cytometry, CHO/huCTLA-4 cells; vs WT CD80 ECD-Fc (Abcam)
Sequence (P16410 36-223): as the sequence (P16410 36-223) above

Fold change to WT CD80 [fold]	Binder
0.5	B1
1	B2
0.2	B3
0.8	B4

molecular target: CD28, endogenously expressed on Jurkat/IL2 reporter cells (human) (UniProt P10747); assay: flow cytometry on Jurkat/IL2 reporter cells (endogenous CD28), 33.3 nM Fc fusion, PE anti-human Fc

MFI at 33.3 nM [MFI]	Binder
199	B5
164	B6
230	B7
756	B8
779	B9
1000	B10

molecular target: CD28 (human) (UniProt P10747); assay: not given

IL-2 luciferase reporter, fold increase over WT CD80-IgV-Fc at 5.0 nM [fold]	Binder
2.5	B1
5.8	B2
4.8	B3
3.9	B4

molecular target: human PD-L1 (human) (UniProt Q9NZQ7); assay: not given
Target sequence in this assay (Q9NZQ7 19-290 limits assumed): as the sequence (Q9NZQ7 19-290) above

IL-2 luciferase reporter, fold increase over WT CD80-IgV-Fc at 5.0 nM [fold]	Binder
2.5	B1
5.8	B2
4.8	B3
3.9	B4

molecular target: CD28 (human) (UniProt P10747); assay: flow cytometry, Jurkat cells (CD28); vs WT CD80 ECD-Fc (Abcam)

Fold change to WT CD80 [fold]	Binder
0.3	B1
0.7	B2
0.5	B3
0.1	B4

molecular target: human CTLA-4 (huCTLA4), on stably transduced CHO cells (human) (UniProt P16410); assay: flow cytometry on CHO cells stably expressing huCTLA4, 33.3 nM Fc fusion, PE anti-human Fc

MFI at 33.3 nM [MFI]	Binder
16600	B5
30300	B6
27900	B7
27500	B8
27900	B9
21400	B10

molecular target: human PD-L1 (human) (UniProt Q9NZQ7); assay: flow cytometry, CHO/huPD-L1 cells; vs WT CD80 ECD-Fc (Abcam)
Target sequence in this assay (Q9NZQ7 19-290): as above

Fold change to WT CD80 [fold]	Binder
5.9	B1
33.9	B2
33.5	B3
18.1	B4

molecular target: human PD-L1 (huPD-L1), on stably transduced CHO cells (human) (UniProt Q9NZQ7); assay: flow cytometry on CHO/huPD-L1 cells; MFI relative to WT CD80 (CD80 WT IgV-Fc = 1.0)

Fold change to WT CD80 [fold]	Binder
118	B5
41	B6
38.5	B7
48.7	B8
53.4	B9
53.9	B10

molecular target: human CTLA-4 (human) (UniProt P16410); assay: flow cytometry, CHO cells expressing huCTLA-4

MFI at 33.3 nM [MFI]	Binder
21800	B1
39300	B2
7280	B3
33300	B4

molecular target: human PD-L1 (huPD-L1), on stably transduced CHO cells (human) (UniProt Q9NZQ7); assay: flow cytometry on CHO cells stably expressing huPD-L1, 33.3 nM Fc fusion, PE anti-human Fc

MFI at 33.3 nM [MFI]	Binder
8310	B5
2880	B6
2700	B7
3420	B8
3760	B9
3790	B10

molecular target: CD28 (human) (UniProt P10747); assay: flow cytometry, Jurkat/IL2 reporter cells (CD28)

MFI at 33.3 nM [MFI]	Binder
236	B1
507	B2
328	B3
68.7	B4

Reference: patent US20220177587A1, “METHODS AND USES OF VARIANT CD80 FUSION PROTEINS AND RELATED CONSTRUCTS” (Alpine Immune Sciences, Inc., priority 2018, published 2022)
